Test results taken from patent EP4755372A1, “POLYMERIC MICELLE […] POLYMER CHAIN OF SELF-A[…]” (INSTITUTE OF SCIENCE TOKYO, priority 2023, dated 2025).

Columns and labels:
[1] = Pharmacokinetics test in CT26 tumor-bearing mice, Gd concentration by ICP-MS; assay type: in vivo; details: caudal vein, Gd conc. 5 mg/kg; for blood retentivity and blood clearance: CT26 tumor-bearing mice; for accumulation in different organs: liver, spleen, kidneys, brain, muscle, pancreas; for tumor accumulation (Gd concentration): 24-48 hours after administration for SMDC-Gd4
Procedure: A tumor-bearing model was prepared by subcutaneously transplanting CT26 mouse colorectal cancer cells into mice (Balb/c, 6-week-old, female, SLC), and the model was used for pharmacokinetics testing. A cell suspension that had been subcultured (5% CO2, 37°C) using DMEM medium (containing 10% FBS and 1% penicillin streptomycin) was subcutaneously injected into the mouse dorsal region (1 × 10^6 cells/mouse, DMEM). At 10 days after administration, the tumor size was randomized and each sample was administered to the mouse through the caudal vein (Gd conc. 5 mg/kg, n = 6). After administration, blood was collected and the organs (tumors, liver, spleen, kidneys, pancreases, skin, muscles and brains) were dissected after specified time periods (1, 4, 8, 24 and 72 hours). After sampling, the plasma was collected by centrifugal separation of the blood to prepare a sample. The collected organs were pretreated (heated at 70% nitric acid, heating at 90°C for ≥1 hour, followed by dilution with ultrapure water), and the Gd concentration was measured using ICP-MS.
• Apparatus: Agilent 7700x ICP-MS/Agilent • Pretreatment apparatus: EYELA MG-2300/Tokyo Rikakikai Co., Ltd. • Standard solution: Gadolinium standard solution (Gd1000) for ICP analysis/FujiFilm-Wako • Results: Figs. 18 to 25

[2] = Evaluation of SMDC formation: DA from SEC-MALS in PBS and chloroform; assay type: physicochemical; details: DA = MwPBS/MwCHCl3; 5 mg/mL, 40°C
Procedure: The foldability in water of BZAm-PEGAn-CEAk(DOTA)j obtained by the procedure described above was evaluated by comparing the absolute weight-average molecular weight Mw calculated from size exclusion chromatography in aqueous solution (PBS) and in an organic solvent (chloroform or DMF) and a system utilizing a multi-angle light scattering detector (SEC-MALS). Data obtained from SEC-MALS were analyzed using a Zimm plot, with dn/dc being the value calculated by measuring the refractive index of 4 different samples with different concentrations in each solvent (4, 3, 2 and 1 mg/mL). DA was calculated by the following formula. DA = MwPBS/MwCHCl3
• Apparatus: JASCO Extrema HPLC system (LC-Net II/ADC, Co-4060, AS-4050, PU-4180/JASCO Corp. • Detector: UV-4070/JASCO Corp., RI-4030/JASCO Corp., DAWN 8 MALS detector/Wyatt Technology Corporation • Column: OHpak SB-804HQ column/Showa Denko K.K. • (column size: 8 mm × 300 mm, pore size: 20 nm, particle size: 10 µm, exclusion limit: 1 × 10^6 g/mol) • OHpak SB-806 MHQ column/Showa Denko K.K. • (column size: 8 mm × 300 mm, pore size: 1.5 µm, particle size: 13 µm, exclusion limit: 2 × 10^7 g/mol) • OHpak SB-G 6B Guard column/Showa Denko K.K. • Mobile phase: 137 mM NaCl, 2.7 mM KCl, 11.9 mM phosphate buffer (PBS), pH 7.4 Temperature: 40°C • Flow rate: 1 mL/min • Sample concentration : 5 mg/mL • Results: Table 21
• Apparatus: TOSOH HLC-8220 GPC system/Tosoh Corp. • Detector: DAWN HELEOS II MALS detector/Wyatt • Column: LF-804 column/Showa Denko K.K. • (column size: 8 mm × 300 mm, pore size: 300 nm, particle size: 6 µm, exclusion limit: 2 × 10^6 g/mol) • LF-G guard column/Showa Denko K.K. • Mobile phase: chloroform • Temperature: 40°C • Flow rate: 1 mL/min • Sample concentration : 5 mg/mL • Results: Table 21

[3] = SAXS measurement (Guinier plot particle size, Kratky plot); assay type: physicochemical; details: SAXS in aqueous solution, 10 mg/ml
Procedure: (§1) For the previously obtained BZAm-PEGAn-CEAk(DOTA)j and PEGAn-CEAk(DOTA)j, the particle size was confirmed by Guinier plot in small angle x-ray scattering (SAXS), and SMDC formation was confirmed by Kratky plot. The particle size was also measured by transmission electron microscopy (TEM) and dynamic light scattering. The surface potential was also measured.
• Apparatus: nano-viewer SAXS system/Rigaku Corp. • Solvent: Ultrapure water or DMF • Sample concentration : 10 mg/ml • Measuring temperature: room temperature • Results: Fig. 12 and Fig. 13

[4] = Zeta potential (surface potential) measurement; assay type: physicochemical; details: for surface charge (zeta potentials): ultrapure water
Procedure: as §1
• Apparatus: Malvern Zetasizer Nano ZSP/Malvem Panalytical • Solvent: Ultrapure water • Sample concentration : 10 mg/ml • Measuring temperature: room temperature • Results: Fig. 16 and Fig. 17

[5] = Relaxivity measurement (r1, r2), 0.47T NMR; assay type: physicochemical; details: compared with Gd-DOTA, 37°C
Procedure: Different polymer samples (Gd conc. 1 mM, 0.5 mM, 0.25 mM and 0.125 mM) were prepared, and the longitudinal relaxation time T1 and transverse relaxation time T2 were measured for each concentration. Using the obtained results, a plot of Gd concentration with respect to obtained relaxation time was drawn, and the longitudinal relaxivity r1 and transverse relaxivity r2 were derived from the slope of the fitted curve, based on the following formula. Here, (1/Ti)obs represents the measured relaxation time, and (1/Ti)d represents the relaxation time of the solvent. (1/Ti)obs = (1/Ti)d + ri [Gd]. i = 1, 2 [formula]
• Apparatus: Bruker minispec 0.47T NMR/Bruker • Solvent: Ultrapure water or BSA (10 mg/mL)-dissolved ultrapure water • Measuring conditions: Temperature: 37°C, receiver gain = 80-82, recycle delay = 2. • Results: Table 22

[6] = test system: CT26 mouse colorectal cancer cells; test: MRI R1 mapping in CT26 tumor-bearing mice; assay type: in vivo; details: for tumor/muscle ratio (T/M ratio) of the relaxation rate: Gd conc. 0.1 mmol/kg
Procedure: CT26 mouse colorectal cancer cells were subcutaneously grafted into mice (BALB/c nu/nu mice, 5-week-old, female, SLC) to create a tumor-bearing model which was used for MRI. A CT26 cell suspension that had been subcultured (5% CO2, 37°C) using DMEM medium (containing 10% FBS and 1% penicillin streptomycin) was subcutaneously injected into the mouse dorsal region (1 × 10^6 cells/mouse, Hank's balanced salt solution). At 1 week after administration, the tumor size was randomized, and then each sample was administered to the mouse through the caudal vein (Gd conc. 0.1, 0.05, 0.03 and 0.01 mmol/kg). MRI imaging (R1 mapping, T1-weighted image) was carried out under isoflurane anesthesia.
• Apparatus: Horizontal 1.0 T Bruker ICON MRI system/Bruker • Pulse sequence: Rapid acquisition with relaxation enhancement (RARE)-based inversion recovery sequence • Measuring conditions: Echo time (TE) = 10 ms; [formula] Repetition time (TR) = 10,000 ms; [formula] [formula] RARE Factor = 4; [formula] Field of view (FOV) = 28.0 × 16.0 mm^2; [formula] Slice thickness = 2.0 mm; [formula] Pixel count = 70 × 40; [formula] Resolving power (in-planeresolution) = 0.4 × 0.4 mm^2 [formula] Number of excitations = 1; [formula] • Fat suppression mode: OFF; • FOV saturation: ON • Measuring points: Before administration and 20, 40, 60 minutes and 24 hours after administration • Results: Figs. 38 to 42

[7] = test system: CT26 mouse colorectal cancer cells; test: Gd-NCT experiment (neutron irradiation of CT26 tumor-bearing mice); assay type: in vivo; details: 3 administrations, Gd conc. 0.1 mmol/kg, neutron irradiation 10 minutes
Procedure: A tumor-bearing model prepared by subcutaneously grafting CT26 mouse colorectal cancer cells into mice (Balb/c, 6-week-old, female, SLC) was used in an experiment for Gd-NCT. A CT26 cell suspension was injected into the mouse right femoral region (2 × 10^5 cells/mouse, DMEM). After approximately 2 weeks, each sample was administered 3 times through the caudal vein of the mouse (after 0, 24 and 48 hours, Gd conc. 0.1 mmol/kg, n = 5). A PBS-administered group was used as a comparative control. At 72 hours after the first administration, the holder in which the mouse had been placed was set on a 5 mm-thick thermoplastic sheet containing 40 wt% ^6LiF (96% ^6Li) for shielding of thermal neutrons and irradiated with neutron rays for 10 minutes only at the tumor site of the right femoral region (5 MW, Kyoto University Research Reactor, fluence: 2.87 × 10^12 to 3.29 × 10^12 thermal neutron/cm^2, 5.10 × 10^11 to 5.86 × 10^11 epithermal neutron/cm^2). The antitumor effect was confirmed by time-dependent change in tumor volume, and toxicity was confirmed by change in mouse body weight.

[8] = TEM particle size measurement; assay type: physicochemical; details: by folding; method not given
Procedure: as §1
• Apparatus: JEM-2100F TEM system/JEOL Corp. • Solvent: Ultrapure water • Pretreatment: Stained on formvar/carbon supported-copper grids • Measuring temperature: room temperature • Results: Fig. 14 and Fig. 15

[9] = Pharmacokinetics test for Gd-NCT (single or 3 administrations), Gd by ICP-MS; assay type: in vivo, mice
Procedure: A tumor-bearing model was prepared by subcutaneous grafting of CT26 mouse colorectal cancer cells into mice (Balb/c, 6-week-old, female, SLC) by the same procedure as for the SMDC-Gd pharmacokinetics test, and a pharmacokinetics test was conducted as an experiment for Gd-NCT. In this case, however, each sample was administered once or 3 times through the caudal vein of the mouse (0, 24 and 48 hours afterwards, Gd conc. 0.1 mmol/kg, n = 5), with blood collection and organ dissection and collection (tumors, liver and kidneys) 24 hours after the final administration. Each organ was pretreated by the same procedure as described above, and the Gd concentration was also measured in the same manner using ICP-MS. • Apparatus: Agilent 7700x ICP-MS/Agilent • Pretreatment apparatus: EYELA MG-2300/Tokyo Rikakikai Co., Ltd. • Standard solution: Gadolinium standard solution (Gd1000) for ICP analysis/FujiFilm-Wako • Results: Fig. 46 and Fig. 47

[10] = 3 doses given every 24 hours, after the final 24 hours

| Compound | blood retentivity and blood clearance [1] | accumulation in different organs [1] | DA [2] | Kratky plot (particle formation) [3] | surface charge (zeta potentials) [4] | longitudinal relaxivity (r1) [5] | tumor accumulation (Gd concentration) [1] | tumor/muscle ratio (T/M ratio) of the relaxation rate ([6]; 1 hour after administration) | antitumor effect by Gd-NCT (tumor volume) [7] | further results |
| --- | --- | --- | --- | --- | --- | --- | --- | --- | --- | --- |
| BZA100-PEGA70-CEA30(DOTA)17 [TP6] | more rapid | accumulated more abundantly in the liver, spleen and kidneys | 0.53 | form particles in aqueous solution | negative | higher | – | – | – | zeta potential [4]: -37 mV |
| O=C([O-])CN1CCN(CC(=O)[O-])CCN(CC(=O)O)CCN(CC(=O)[O-])CC1.[Gd+3] [Gd-DOTA, gadoteric acid] | rapidly excreted from the blood | – | – | – | – | – | low | 0.77 | failed to exhibit sufficient antitumor activity | – |
| PEGA124-CEA10(DOTA)4 [PEGA-Gd4] | equivalent | – | – | no peak could be confirmed | negative | higher | – | – | – | R1 value ([6]; during the 24 hours, compared with SMDC-Gd4): consistently lower than SMDC-Gd4 |
| BZA100-PEGA90-CEA10(DOTA)4 [TP4] | equivalent | equivalent to typical nanomedicine | 0.91 | form particles in aqueous solution | negative | higher | at least twice that of SMDC-Gd17 and PEGA-Gd4 | 1.17 | suppressed tumor growth | contrast effect in tumor tissue ([6]; longitudinal relaxation rate of tumors): high contrast effect; tumor/muscle ratio (T/M ratio) of the relaxation rate ([6]; within 24 hours after administration): 1.36; change in body weight after Gd-NCT [7]: without body weight loss; diameter [8]: about 6 nm; intratumoral Gd concentration [9, 10]: 91.2 ppm; intratumoral concentration in terms of ^157Gd groups [9, 10]: 14.3 ppm; intratumoral concentration in terms of ^157Gd groups ([9]; single dose, 24 hours after injection): 6.4 ppm; intratumoral Gd concentration ([9]; single dose, 24 hours after injection, Gd conc. 0.1 mmol/kg): 41.2 ppm |
| BZA100-PEGA80-CEA20(DOTA)9 [TP5] | – | – | 0.88 | form particles in aqueous solution | – | higher | – | – | – | – |
| PEGA104-CEA30(DOTA)12 [PEGA-Gd12] | – | – | – | – | – | higher | – | – | – | – |
